How the values were obtained:
[1] = molecular target: HA-Smad2 (wild type) (human, UniProt Q15796 1-467); experiment: cell-based or functional assay
[2] = molecular target: HA-Smad3 (wild type) (human, UniProt P84022 1-425); experiment: cell-based or functional assay
Sequence of HA-Smad3 (wild type) (P84022 whole entry): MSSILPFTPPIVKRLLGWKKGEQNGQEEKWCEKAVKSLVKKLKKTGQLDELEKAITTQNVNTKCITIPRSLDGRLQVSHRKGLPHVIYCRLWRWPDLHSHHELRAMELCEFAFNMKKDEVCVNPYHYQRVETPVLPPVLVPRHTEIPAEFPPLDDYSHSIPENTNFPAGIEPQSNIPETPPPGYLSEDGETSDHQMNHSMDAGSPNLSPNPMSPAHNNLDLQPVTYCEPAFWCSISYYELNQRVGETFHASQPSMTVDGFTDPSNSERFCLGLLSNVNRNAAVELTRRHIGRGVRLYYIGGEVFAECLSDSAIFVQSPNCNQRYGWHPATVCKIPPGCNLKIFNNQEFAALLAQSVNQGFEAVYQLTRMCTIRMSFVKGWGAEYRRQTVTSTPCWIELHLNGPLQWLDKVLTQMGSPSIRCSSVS

Sequence of HA-Smad2 (wild type) (Q15796 whole entry): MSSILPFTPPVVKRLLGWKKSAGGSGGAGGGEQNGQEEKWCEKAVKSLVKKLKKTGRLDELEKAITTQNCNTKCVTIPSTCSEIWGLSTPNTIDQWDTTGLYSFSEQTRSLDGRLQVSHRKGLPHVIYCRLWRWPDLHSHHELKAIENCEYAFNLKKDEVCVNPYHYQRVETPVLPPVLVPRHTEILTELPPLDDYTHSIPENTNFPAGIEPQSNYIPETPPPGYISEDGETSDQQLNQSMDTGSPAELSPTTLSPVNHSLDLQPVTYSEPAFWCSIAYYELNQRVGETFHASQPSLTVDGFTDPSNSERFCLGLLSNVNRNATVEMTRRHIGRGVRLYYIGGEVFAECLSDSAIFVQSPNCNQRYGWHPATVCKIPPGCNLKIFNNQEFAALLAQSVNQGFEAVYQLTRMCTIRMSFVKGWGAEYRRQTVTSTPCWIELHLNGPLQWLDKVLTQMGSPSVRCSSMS

B1: Flag-Foxd4l1.1 (natural protein, Xenopus, UniProt Q9PRJ8 1-352, looked up)
chain: MSFSQESGAHHHPQDYAGLSDEEDEIDILGEDDPCSLKSHFYLQPTHSVMGDSEMLSPSKLSCTESESDSSGESEGGTSKDSSTTPTGSKAKRTLVKPPYSYIALITMAILQSPHKKLTLSGICDFISSKFPYYKDKFPAWQNSIRHNLSLNDCFIKIPREPGNPGKGNYWTLDPASEDMFDNGSFLRRRKRFKRHQQEFFKDGLMMYNSLPYYRPYSAIQPQPVLQQTSLTCMAIPETLPMSTHLAPYPDIKRKVSYPAQGVHRGFKAQDADNHPNNSQSKCSFSIENIMRKPKEPEPNIQSFNSHWNYNHVFQRPSSCLLPAVLNLSTGPLLANTQGARQYNLIQFPGCY
B1 was tested, and the “ChIP-qPCR: occupancy of HA-Smad2 on the AREs of the chrd promoter without and with co-injected Flag-Foxd4l1.1 (fold enrichment)” value [1] was 7.3 fold and the “ChIP-qPCR: occupancy of HA-Smad3 on the AREs of the chrd promoter without and with co-injected Flag-Foxd4l1.1 (fold enrichment)” value [2] was 4.02 fold.

Reference: PMC8534798, “Foxd4l1.1 Negatively Regulates Chordin Transcription in Neuroectoderm of Xenopus Gastrula” (Cells, 2021)
